Measurements published in PMC6181439 (2018).

B1: scPOM2 (scFv, V domains shown)
VH: VKLQESGGEVVRPGTSVKVSCKASGYAFTNYLIEWVKQRPGQGLEWIGVINPGSGDTNYNEKFKGKATLTADKSSSTAYMQLNSLTSDDSAVYFCARSGAAAPTYYAMDYWGQGVSVTVSS
VL: DIVMTQSHKFMSTSVGDRVSITCKASQVGTALAWYQQKPGQSPKLLIYWASTRHTGVPDRFTGSGSGTDFTLTISNVQSEDLSDYFCQQYSSYPTFGGGTKLEIK
B2: Full IgG POM2 monoclonal antibody (antibody, V domains shown)
VH: B1 VH
VL: B1 VL

Legend:
[1] = molecular target: T1, Recombinant mouse PrP full length (23-230) (mouse, UniProt P04925 23-230); test: SPR
[2] = molecular target: T1, Recombinant mouse PrP full length …; test: SPR; remark: listed apart in the source

T1 sequence (P04925 23-230): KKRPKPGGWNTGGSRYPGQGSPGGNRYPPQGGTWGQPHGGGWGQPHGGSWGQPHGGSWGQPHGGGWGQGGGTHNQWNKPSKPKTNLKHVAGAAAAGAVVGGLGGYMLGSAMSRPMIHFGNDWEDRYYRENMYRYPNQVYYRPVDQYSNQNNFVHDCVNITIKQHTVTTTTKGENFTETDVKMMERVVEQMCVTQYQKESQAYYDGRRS

Binder	koff [1]	Kd [2]
B1	0.00036 s⁻¹	23 nM
B2	9.5e-06 s⁻¹	0.1 nM
